Values quoted from earlier work, collected in PMC6952583 (Chembiochem : a European journal of chemical biology, 2019).

Target: ComD2 receptor (Streptococcus pneumoniae serotype 4, UniProt A0A0H2US84)
Conditions: read-out: ComD2 EC50; TIGR4pcomX::lacZ reporter strain; ref [20]

CSP2(15): truncated version of CSP2, starting scaffold (EMRISRIILDFLFLR)
EC50: 21.9 nM
